In patent US20260227403A1 (HENRY M JACKSON FOUNDATION FOR THE ADVANCEMENT OF MILITARY …, published 2026):

Key:
Assay in all cases: ELISA: 500 ng peptide coated per well, 29E4 at 40 ng/mL, HRP goat anti-rabbit Ig 1:16,000, ABS 450 nm, duplicates [CONT. 2]
[1] = target: T1, P2 (alanine substituted, FIG. 3 panel E)
T1 construct: not the overlapping peptide P2 of panel A; also called Q212 to alanine
Excerpt: (§1) HRP Goat anti-rabbit Ig was applied at 1:16,000 dilution in all reactions.
(§2) Peptides were synthesized to achieve ≥70% HPLC purity by a commercial vendor (GenScript Biotech, Piscataway, NJ). Peptides were reconstituted in either water, or with addition of acetonitrile, methanol, 10% acetic acid, or DMSO, depending on the overall charge of each peptide. Key residues required for mAb binding were probed by ELISA using overlapping peptides, truncated peptides and alanine substituted peptides. Reactions were performed in duplicate using NUNC 96-well flatbottom MaxiSorp plates (Thermo Scientific). After coating each well with 500 ng of peptide in 100 μL coating buffer (50 mM NaHCO₃, pH 9.6), the plates were sealed and incubated at 4° C. overnight. […] Plates were then washed once with wash buffer, incubated with 100 μL mAb 29E4 (serially diluted from 1 mg/mL) for 1 hour at 37° C. Plates were further washed four times with wash buffer, and then incubated at 37° C. with 100 μL of a horse radish peroxidase (HRP)-conjugated secondary antibody against the primary antibody, diluted 1:16,000 according to manufacturer's protocols (KPL, Inc., Gaithersburg, MD). After washing four times with wash buffer, 100 μL of K-Blue Aqueous TMB substrate (Neogen, Lexington, KY) was added to the plates and incubated uncovered for 30 minutes at room temperature. To stop the reaction, 100 μL of 2 N Sulphuric acid was added to each well and absorbance were measured immediately at 450 nm. All dilutions of reagents were performed in ELISA diluent (20% NGS in 1×PBS with 0.1% Triton-X 100).

[2] = target: T2, P5 (alanine substituted, FIG. 3 panel E)
T2 construct: not the overlapping peptide P5 of panel A; also called M215 to alanine
T2 sequence (peptide, as listed by the source): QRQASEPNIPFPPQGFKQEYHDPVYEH
Excerpt: as §1, §2

[3] = target: T3, P4 (alanine substituted, FIG. 3 panel E)
T3 construct: not the overlapping peptide P4 of panel A; also called Q214 to alanine
T3 sequence (peptide, as listed by the source): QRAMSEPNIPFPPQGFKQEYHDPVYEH
Excerpt: as §1, §2

[4] = target: T4, P15 (alanine substituted, FIG. 3 panel E)
T4 construct: also called Q225 to alanine
T4 sequence (peptide, as listed by the source): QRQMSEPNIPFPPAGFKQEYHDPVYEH
Excerpt: as §1, §2

[5] = target: T5, P11 (alanine substituted, FIG. 3 panel E)
T5 construct: also called P221 to alanine
T5 sequence (peptide, as listed by the source): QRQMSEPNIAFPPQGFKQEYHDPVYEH
Excerpt: as §1, §2

[6] = target: T6, P14 (alanine substituted, FIG. 3 panel E)
T6 construct: also called P224 to alanine
T6 sequence (peptide, as listed by the source): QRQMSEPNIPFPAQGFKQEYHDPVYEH
Excerpt: as §1, §2

[7] = target: T7, P26 (alanine substituted, FIG. 3 panel E)
T7 construct: also called Y236 to alanine
T7 sequence (peptide, as listed by the source): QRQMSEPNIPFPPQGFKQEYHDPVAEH
Excerpt: as §1, §2

[8] = target: T8, P6 (alanine substituted, FIG. 3 panel E)
T8 construct: not the overlapping peptide P6 of panel A; also called S216 to alanine
T8 sequence (peptide, as listed by the source): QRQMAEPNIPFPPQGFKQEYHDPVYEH
Excerpt: as §1, §2

[9] = target: T9, P25 (alanine substituted, FIG. 3 panel E)
T9 construct: also called V235 to alanine
T9 sequence (peptide, as listed by the source): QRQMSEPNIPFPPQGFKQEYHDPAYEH
Excerpt: as §1, §2

[10] = target: T10, P22 (alanine substituted, FIG. 3 panel E)
T10 construct: also called H232 to alanine
T10 sequence (peptide, as listed by the source): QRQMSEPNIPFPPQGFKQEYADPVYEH
Excerpt: as §1, §2

[11] = target: T11, P16 (alanine substituted, FIG. 3 panel E)
T11 construct: also called G226 to alanine
T11 sequence (peptide, as listed by the source): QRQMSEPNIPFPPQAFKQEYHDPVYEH
Excerpt: as §1, §2

[12] = target: T12, P24 (alanine substituted, FIG. 3 panel E)
T12 construct: also called P234 to alanine
T12 sequence (peptide, as listed by the source): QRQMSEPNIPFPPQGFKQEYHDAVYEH
Excerpt: as §1, §2

[13] = target: T13, P21 (alanine substituted, FIG. 3 panel E)
T13 construct: also called Y231 to alanine
T13 sequence (peptide, as listed by the source): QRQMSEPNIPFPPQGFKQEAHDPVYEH
Excerpt: as §1, §2

[14] = target: T14, alanine substituted peptide with P223 replaced by alanine (P13 of FIG. 3 panel E) (human)
T14 construct: The text names only the residue P223
T14 sequence (peptide, as listed by the source): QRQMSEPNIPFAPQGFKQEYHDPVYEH
Excerpt: as §1, §2

[15] = target: T15, P7 (alanine substituted, FIG. 3 panel E)
T15 construct: not the overlapping peptide P7 of panels A and C; also called E217 to alanine
T15 sequence (peptide, as listed by the source): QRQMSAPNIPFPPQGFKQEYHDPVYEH
Excerpt: as §1, §2

T1 sequence (peptide, as listed by the source): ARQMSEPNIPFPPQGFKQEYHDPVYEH

binding result [1]: binds
binding result [2]: binds
binding result [3]: binds
binding result [4]: binds
binding result [5]: binds
binding result [6]: binds
binding result [7]: binds
binding result [8]: binds
binding result [9]: binds
binding result [10]: binds
binding result [11]: binds
binding result [12]: binds
binding result [13]: binds
binding result [14]: binds
binding result [15]: binds
B1: ETV1 rabbit monoclonal antibody (29E4) (antibody, V domains shown)
VH: QELEESGGDLVKPGASLTLTCTASGFFFSAENHICWVRQAPGKGLEWIGCVYIGSYVGGSGDPYYASWAKGRFTISKTSSTTVTLQMSSLTAADTATYFCARDLGSLWGPGTLVTVSS
VL: DVVMTQTASSVSAAVGGTVTIACQSSQSVYDNNNLAWFQQKPGQPPKRLIYSASTLASGVSSRFKGSGYGTQFTLTISDVQCDDAATYYCVGAFSGYIFVFGGGTEVVVK
notes: constant regions are not; also called 29E4 mAb; ETV1 29E4 mAb
